Results: the nanobody polyreactivity screen of Harvey et al. (2022)

Assay: yeast display, Sf9 membrane polyspecificity reagent, FACS + sequencing; frameworks hold sequencing errors
Summary of the method: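 Using colony PCR, genes from sorted yeast display clones were amplified, then sequenced on MiSeq at 2 × 250 and filtered by CDR length. The clones had been stained with 10% biotinylated, detergent-solubilized Sf9 membrane reagent for 1 hour at 4 °C and sorted by FACS into low and high (top ~1%) gates on anti-HA and streptavidin fluorescence. Polyreactivity labels come from the gate of origin.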

| Sequence | polyreactivity (PSR sort gate) |
| --- | --- |
| QVQLVESAGGLVQAGGSLRLSCAASGRTLRGYAMGWYRQAPGKERELVAAITWSGGSTYYADSVKGRFTISRDNAKNTVYLQMNSLKPEDTAVYYCNARSYPDLYDYWGQGTQVTVSS | high polyreactivity |
| QVQLVESAGGLVQAGGSLRLSCAASGRTLTGNALGWYRQAPGKESELVAAITARGGSTKYADSVKGRFTISRDNAKNTVYFLMNSLKPEDTAVFYCAAGCWYYLHMDYWGQGTQVTVSS | high polyreactivity |
| QVQLVESAGGLVQAGGSLRLSCAASGRTLTRYTMGWYRQAPGKERELVAAITSGGSTYYADSVKGRFTISRDNAKNTVYLQKNSLKPEDTAVYYCNARTPWWSFSITEYGYWGQGTLVTVSS | high polyreactivity |
| QVQLVESAGGLVQAGGSLRLSCAASGSIFAGNVMGWYRQEPGKEWELVAAISRRGGRTYYADSVKGRFTISRDNAKNTVYLQMNSLKPEETAVYYCAARRDPVLCKSDYWGQGTQVTVSS | high polyreactivity |
| QVQLVESAGGLVQAGGSLRLSCAASGSIFKDYAMGWYRQAPGKERELVAAITSGTSTTYADSVKGRFTISRDNAKYTVYLPMNSLKPDDTAVYYCAADYYLRKTRFESWGQGTQVTVSP | low polyreactivity |
| QVQLVESAGGLVQAGGSLRLSCAASGSIFPGYAMGWYRQAPVKERELVATITWSGGSTYYADSVKGRFTISRDNAKNSVYLQMNILKPEDTAVYYCNADSNWYYQWNYYGLYDYWGQGTQVTVSS | low polyreactivity |
| QVQLVESAGGLVQAGGSLRLSCAASGSIFRLNALGWSRQQPGQVRELVAAITWSDSSTYYADSVKGRFTISRDTAKNTVYLQMNSLKPEDTAVSYCAGDPQSYKYDYWGQGTQVTVSS | low polyreactivity |
| QVQLVESAGGLVQAGGSLRLSCAASGSIFVPNVMGWYRQAPGKERELVATITRSTSTYYADSVKGRFTISRDNAKNTVYLQMNSLKPEDTAVYYCAAVWEWYSKYTRFYYWGQGTQVTVSS | high polyreactivity |
| QVQLVESAGGLVQAGGSLRLSCAASGSIFVRNAMGWYRQAPGKERELVARISSRGGSTYYADSVKGRFTISRDNAKNTVYLQMISLKPEDTAVYYSNRDRTWQTNDYWGQGTQVTVSS | high polyreactivity |
| QVQLVESAGGLVQAGGSLRLSCAASGSILYKNAMGWYRQAPGKERELVAAIRSGGSTYYADSVKGRFTISRDNAINTVYLQMNSLKPEDTAVYYCYARTFSHGRYDYWGQGTQVTVSS | low polyreactivity |
| QVQLVESAGGLVQAGGSLRLSCAASGSTFRYYAMGWSRQAPGKESELVAVISTSGNTYYADSVKGRFTISRDNAKNSVYLQMNSLIPEDTAVYYCAARGVGGQISQEYDYWGKGTQVTVSS | low polyreactivity |
| QVQLVESAGGLVQAGGSLRLSCAASGSTFVTYDMGWYRQAPGKERELVAAIRYSDGSTYYADSVKGRFTISRDNAKNTVYRQMNSLKPEDTAVYYCAADLGNYDYYGYVRYDYWGQGTQVTVSS | low polyreactivity |
| QVQLVESAGGLVQAGGSLRLSCAASGSTFYPNAMGWYRQAPGKERELVAAISRGTRTKYADSVKGRFTISRDNAKNTVYLQMNSMKPEDTAVYYCAPLTYQSYWSVDGYYYWGQGTQVTVSS | high polyreactivity |
| QVQLVESAGGLVQAGGSLRLSCADSGSISTVYAMGWYRPAPGKERELVAAISWSGGYTYYADTVKGRFTISRDNEKNTVYLQMNSVKPEDTAFYYCDAEGYLVGSRWGPCYGDYWGQGTQVTGSS | high polyreactivity |
| QVQLVESAGGLVQAGGSLRLSCAHSGITYTRYAMGWYRHAPGKESELVAAISSGGRTNYADSVKGRFTISRDNAKNTVYLQMNTLKPEDTAVYYCNAAGHRWYPRYHYWGQGTQVTVSS | high polyreactivity |
| QVQLVESAGGLVQAGGSLRLSCAPSGSTFYHNVMGWYSPAPGKERELVASIDTGDSTNYADSVKGRFTISRDNAKNTVYLQMNSLKPEDTAVYYCARSQAVYDGWFAKFGYWGQGTQVTVSS | low polyreactivity |
| QVQLVESAGGLVQAGGSLRLSCASSGSTFQKYAMGWYRQAPGKESELVARISSGGSTTNADYVKGRFTISRDNAKYTVYIQMTSLKPEDTAVYYCAARLVVAQPHQWVVYLNTYYYWGQGTQVTVSS | high polyreactivity |
| QVQLVESAGGLVQAGGSLRLSCDASISSINAMGWYRQAPGKEREMVAAIRWSGSSTYYADSVKGRFTISRDNAKNTVYLQMNSLKPEDTAVYYCAARWYARSLTRFNYWGQGTQVTVSS | high polyreactivity |
| QVQLVESAGGLVQAGGSLRLSCYASGRIFPAYAMGWYRQAPGKERELVASIRRGGITYADSVKGRFTISRDNAKNTVYLQMNSLKPEDTAVYYCNADSRGWGYHMDYWGQGTQVTVSS | low polyreactivity |
| QVQLVESAGGLVQAGGSLSLSCAASGILVYNAMGWYRQAPGKQRELVAAISARGGRTYYADSVKWRFTISRDNAKNTVYLQMNSLKTEDTAVSYCATLETTGVNYWGQGTQVTVSS | high polyreactivity |
| QVQLVESAGGLVQAGGSLSLSCAASGLTFPWYAMGWYRQAPGKERELVAAISSSSGSTYYADSVKGRFTISRDNAKNTVYLQMNSLKPEDTAVYYCAAGYPGGHYDYWGQGTQVTVSS | high polyreactivity |
| QVQLVESAGGLVQAGGSLSLSCAATGITFPYVMGWYRQAPGKQRELVAAISRTGTSTYYADSVKGRFTISRDNAKNTVYLQMNSLKPEDTAVYYCAARTQTQVYPAYGYWGQGTQVTVSS | high polyreactivity |

| Sequence | polyreactivity (PSR sort gate) |
| --- | --- |
| QVQLVESAGGLVQAGGTLRLSCAATGRIVYLNAMGWYRQAPGKERELVAAISGSTGSTYYADSVKGRFTISRDNAKNTVYLQMMSLKPEDTAVYYCNAGGVYDEFNYWGQGTQVTVSS | low polyreactivity |
| QVQLVESAGGLVQAGVSLRLSCAASGSIYPGSAMRWYRQAPGNERELVAAITFGGGITYYADSVKGRFTISRDNAKYTVYLQMNSLKPEDSAVYYCAAKSPRILLDYWGQGTQVTVSS | low polyreactivity |
| QVQLVESAGGVVQAGGSLRLSCAPSGRTFYPYVMGCYRTAPGKERELVARIRWSGSSTYYADSEKGRFTISRDNAKNTVYLQMNSLKPEDTAVYYCNARPSWYVFGSSVHSGMGYWGQGTQVTVSS | high polyreactivity |
| QVQLVESAGRLVQAGGSLRLSCDASGSTFKGYPIGWYRQAPGKERELVAAISRRGGSTYYADSVKGRFTISRDNAKNTVYLQMNSLKPEDTAVYYCAKEGQLRYDYWGQGTQVTVSS | high polyreactivity |
| QVQLVESARGLVKAGGSLLLSCAAYVSIFNHYAMGWYRQAPGKESELVARITNRSGNTYYADSVKGRFTISRDNAKNTGYLQLNSLKGEDTEVYYCAATKSLGRYNMDYWGPGTQVTVSS | low polyreactivity |
| QVQLVESAVGLVKAGGSHRLSCAASASTFYLNARGWYRQAPGKEREFVAAIRGGGTSKRYADSVKGRFTISRDNATNTVYLQMNILKPEDSAVYYCAAGRGGHRYKVGYWGLGTQVTVSS | high polyreactivity |
| QVQLVESAVGLVQAGGSLRLSCAASGTTFVRYAMGWYRQAPGKEREFVAASSKSGGSTYYADSVKGRFTISRDNAKNPVYLQMNSLKPEDTAVYYCATRTTYGQSGSAGPRPSNYWGQGTQVTVSS | low polyreactivity |
| QVQLVESCGCLVQAGGSLRFSCAASGNTFRRNVMGWYRQAPGKEREMVAAINRGGSTTYADSVKGRFTISRDNAKNTVYLQMNSLKPEDTAVYYFNDRTLFKWRHGHYYAYDYWGQGTQVTVSS | high polyreactivity |
| QVQLVESCGGIVQAGGSLRLSCAASGSILRSNSMGTYRQAPGKERELVAAISSRGGSTYYADSVKGRFTISRDNAKNTVYLQMNSLNPEDTAVYYCNKASYTVISYDEYDYWGQVTQVTVSS | high polyreactivity |
| QVQLVESCGGLDQAGGSLRLSCAASGRIFYAYAMGWYRQARGKERELVAAITSSGGRTYYADSVKGRFTISRDNAKNTVYLQMNSLKPEDTAVYYCAAYDYWGQGTQVTVSS | low polyreactivity |
| QVQLVESCGGLVQAGASLRLSCAASGSTFYDNVMGWYRQAPWKERELVAAITWRGGSTYADSVKGRFTISRDNAKNTVYLQMNSLKPEDTAVYYCNADDDYQQYLGDYWGQGTQVTVSS | low polyreactivity |
| QVQLVESCGGLVQAGGILRLSCAAYGRTFYKNAIGWYTQAPGKERELVAAMSSRGGRTTYADSVKGRFTISRDNAKYTVYLQMTSLKPEDTAVYYCAADWAQVYHGTPKYYYWGQGTQVTVSS | high polyreactivity |
| QVQLVESCGGLVQAGGSLRLRCAASGRIIRKYVMAWYRQAPGKERELVAAITGGGSTYYADSVKGRFTISRDNAKNTVYFQKNSLKPEDTAVYYCAADRQSAAHRLWGSEYGYWGQGTQVTVSS | high polyreactivity |
| QVQLVESCGGLVQAGGSLRLRCAASGSIFSGYVMVWYRPAPGKERELVAAISGSGGSTYYADSVKGRFTISRYNAKNTVYLQMNSLKPEDTAVYYCNVDRSPTHIVGYGYWGQGSQVTVSS | low polyreactivity |
| QVQLVESCGGLVQAGGSLRLSCAASGFTFLGYAMGWYRQAPGKERELVAAITSGDSTDYADSVKGRFTISRDNAKNTVYLQMNSLKPEDTAVYYCNAELGSAYEYWGQGTQVTVSS | low polyreactivity |
| QVQLVESCGGLVQAGGSLRLSCAASGFTFVYYAMGWYRKAPGKEREFVAAISKSGGSTYYADSVKGRFTISRDNAKNTVYLQMNSLKPEDTAVYYCAARSYQGTSSGRVTRRYDYWGQGTQVTVSS | high polyreactivity |
| QVQLVESCGGLVQAGGSLRLSCAASGLIFIYNAMGWYRQAPGKERELVAAISRSGGRTYYADSVKGLFTISRDNAKNTVYVQMNSLKPEDTEVYYCATDASTYAYYGGDYWGQGTQVTVSS | low polyreactivity |
| QVQLVESCGGLVQAGGSLRLSCAASGRIFNHNAMGWYRQAPGKEMKLVAAISWRGGSTYYADSVKGRFTISRYNAKNTVYLQRNSLKPEDTAVYYCATKPSPITYKLDYWGQGTQVTVSS | high polyreactivity |
| QVQLVESCGGLVQAGGSLRLSCAASGRIFPYNAMGWYRQAPGKERELVAAIDWRDNTYYADSVKGRFTISRDNAKNTVYLQMNSLKPEDTAVYYCNVDYTDYFLNKYDYWGQGTQVTVSS | low polyreactivity |
| QVQLVESCGGLVQAGGSLRLSCAASGRTFGYYAMGWYRQAPGNERELVAAISRGGRTNYADSVKGRFTISRDNAKNTVYLQMNSLKPEDTAVYYCAKSGTIPRYTASYSLLDYWGPGTQVTVSS | low polyreactivity |
| QVQLVESCGGLVQAGGSLRLSCAASGSTFTVNAMGWNRQAPVKERELVDAITQSRGSTSYADSVKGRFTISRDNAKNTVYVQMNSLKPEDTAVYYCNAQRGVRSRKSYRRQFDYWGHGTQVTVSS | low polyreactivity |
